Experimental data from PMC13365404.

Target: EBOV GP ectodomain for structural work (EBOV Mayinga, residues 33-651, mucin-like domain deleted, double Strep-tag) (Orthoebolavirus zairense (Ebola virus, EBOV), Mayinga) (UniProt Q05320)
Assay: cryo-EM structure

EBOV GP ectodomain for structural work (EBOV Mayinga, residues 33-651, mucin-like domain deleted, double Strep-tag) (from UniProt Q05320 33-651) (domain or fragment)
stoichiometry N: 3
